# Source: ChEMBL document CHEMBL1811779, “Adenosine deaminase-like protein 1 (ADAL1): characterization and substrate specificity in the hydrolysis of N(6)- or O(6)-substituted purine or 2-aminopurine nucleoside monophosphates” (J Med Chem, 2011)
# The source made the active and inactive calls. The calls are words filed in the database; no cut-off is given here.
# T1: N6-Methyl-AMP deaminase (Homo sapiens) (UniProt Q6DHV7)
# T1 sequence (whole entry): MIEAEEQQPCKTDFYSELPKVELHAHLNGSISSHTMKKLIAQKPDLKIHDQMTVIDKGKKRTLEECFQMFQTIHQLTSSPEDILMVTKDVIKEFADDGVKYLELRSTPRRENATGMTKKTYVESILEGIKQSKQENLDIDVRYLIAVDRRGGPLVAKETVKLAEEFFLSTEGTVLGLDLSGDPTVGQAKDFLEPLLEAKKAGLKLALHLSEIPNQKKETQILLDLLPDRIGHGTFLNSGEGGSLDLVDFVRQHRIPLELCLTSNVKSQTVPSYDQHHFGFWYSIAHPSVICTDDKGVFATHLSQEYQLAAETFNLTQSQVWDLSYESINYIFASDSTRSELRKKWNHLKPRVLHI
# B1: N6-Methyl-AMP deaminase (Homo sapiens), Q6DHV7 (protein)
# chain: T1 sequence (whole entry)
# Assays:
# [1] = target: T1, N6-Methyl-AMP deaminase (Homo sapiens); assay: (§1) Activity of recombinant human ADAL1 expressed in Escherichia coli by UV-spectrophotometry
# [2] = substrate: Nc1ncnc2c1ncn2[C@@H]1O[C@H](COP(=O)(O)O)[C@@H](O)[C@H]1O; assay: (§2) Kcat/Km ratio of recombinant human ADAL1 expressed in Escherichia coli
# [3] = substrate: COc1nc(N)nc2c1ncn2[C@@H]1O[C@H](COP(=O)(O)O)[C@@H](O)[C@@]1(C)O; assay: as §2
# [4] = substrate: C[C@@]1(F)[C@H](O)[C@@H](COP(=O)(O)O)O[C@H]1n1cnc2c(N3CCC3)nc(N)nc21; assay: as §2
# [5] = substrate: CCOc1nc(N)nc2c1ncn2[C@@H]1O[C@H](COP(=O)(O)O)[C@@H](O)[C@@]1(C)F; assay: as §2
# [6] = substrate: Nc1nc(Cl)c2ncn([C@@H]3O[C@H](COP(=O)(O)O)[C@@H](O)[C@H]3O)c2n1; assay: as §2
# [7] = substrate: CC(C)Oc1nc(N)nc2c1ncn2[C@@H]1O[C@H](COP(=O)(O)O)[C@@H](O)[C@@]1(C)F; assay: as §2
# [8] = substrate: COc1nc(N)nc2c1ncn2[C@H]1C[C@H](O)[C@@H](COP(=O)(O)O)O1; assay: as §2
# [9] = substrate: CNc1ncnc2c1ncn2[C@@H]1O[C@H](COP(=O)(O)O)[C@@H](O)[C@H]1O; assay: as §2
# [10] = substrate: COc1nc(N)nc2c1ncn2[C@@H]1O[C@H](COP(=O)(O)O)[C@@H](O)[C@@]1(C)F; assay: as §2
# [11] = substrate: COc1nc(N)nc2c1ncn2[C@@H]1O[C@H](COP(=O)(O)O)[C@@H](O)[C@H]1O; assay: as §2
# [12] = substrate: O=P(O)(O)OC[C@H]1O[C@@H](n2cnc3c(NC4CCCC4)ncnc32)[C@H](O)[C@@H]1O; assay: as §2
# [13] = substrate: Nc1nc(NC2CC2)c2ncn([C@H]3C=C[C@@H](COP(=O)(O)O)C3)c2n1; assay: as §2
# [14] = substrate: Nc1ncnc2c1ncn2[C@@H]1O[C@H](COP(=O)(O)O)[C@@H](O)[C@H]1O; assay: as §1
# [15] = substrate: COc1nc(N)nc2c1ncn2[C@@H]1O[C@H](COP(=O)(O)O)[C@@H](O)[C@@]1(C)O; assay: as §1
# [16] = substrate: C[C@@]1(F)[C@H](O)[C@@H](COP(=O)(O)O)O[C@H]1n1cnc2c(N3CCC3)nc(N)nc21; assay: as §1
# [17] = substrate: CCOc1nc(N)nc2c1ncn2[C@@H]1O[C@H](COP(=O)(O)O)[C@@H](O)[C@@]1(C)F; assay: as §1
# [18] = substrate: Nc1nc(Cl)c2ncn([C@@H]3O[C@H](COP(=O)(O)O)[C@@H](O)[C@H]3O)c2n1; assay: as §1
# [19] = substrate: CC(C)Oc1nc(N)nc2c1ncn2[C@@H]1O[C@H](COP(=O)(O)O)[C@@H](O)[C@@]1(C)F; assay: as §1
# [20] = substrate: COc1nc(N)nc2c1ncn2[C@H]1C[C@H](O)[C@@H](COP(=O)(O)O)O1; assay: as §1
# [21] = substrate: CNc1ncnc2c1ncn2[C@@H]1O[C@H](COP(=O)(O)O)[C@@H](O)[C@H]1O; assay: as §1
# [22] = substrate: COc1nc(N)nc2c1ncn2[C@@H]1O[C@H](COP(=O)(O)O)[C@@H](O)[C@@]1(C)F; assay: as §1
# [23] = substrate: COc1nc(N)nc2c1ncn2[C@@H]1O[C@H](COP(=O)(O)O)[C@@H](O)[C@H]1O; assay: as §1
# [24] = substrate: O=P(O)(O)OC[C@H]1O[C@@H](n2cnc3c(NC4CCCC4)ncnc32)[C@H](O)[C@@H]1O; assay: as §1
# [25] = substrate: Nc1nc(NC2CC2)c2ncn([C@H]3C=C[C@@H](COP(=O)(O)O)C3)c2n1; assay: as §1
molecule,measurement,setting,value
CSc1nc(N)nc2c1ncn2[C@@H]1O[C@H](COP(=O)(O)O)[C@@H](O)[C@H]1O,Activity,[1],inactive
COc1nc(N)nc2c1ncn2[C@@H]1O[C@H](COP(=O)(O)N[C@@H](C)C(=O)O)[C@@H](O)[C@@]1(C)F,Activity,[1],inactive
COc1nc(N)nc2c1ncn2[C@@H]1O[C@H](COP(=O)(O)OP(=O)(O)O)[C@@H](O)[C@@]1(C)F,Activity,[1],inactive
Nc1nc(NC2CC2)c2ncn([C@H]3C=C[C@@H](CO)C3)c2n1,Activity,[1],inactive
Nc1ncnc2c1ncn2[C@@H]1O[C@H](CO)[C@@H](O)[C@H]1O,Activity,[1],inactive
Nc1ncnc2c1ncn2CCOCP(=O)(O)O,Activity,[1],inactive
CN1N=C(N)c2cn([C@@H]3O[C@H](COP(=O)(O)O)[C@@H](O)[C@H]3O)c3ncnc1c23,Activity,[1],inactive
CCOc1nc(N)nc2c1ncn2[C@@H]1O[C@H](CO)[C@@H](O)[C@@]1(C)F,Activity,[1],inactive
CCOc1nc(N)nc2c1ncn2[C@@H]1O[C@@H]2COP(=O)(O)O[C@H]2[C@@]1(C)F,Activity,[1],inactive
COc1nc(N)nc2c1ncn2[C@@H]1O[C@H](CO)[C@@H](O)[C@H]1O,Activity,[1],inactive
O=C(O)CC(Nc1ncnc2c1ncn2[C@@H]1O[C@H](COP(=O)(O)O)[C@@H](O)[C@H]1O)C(=O)O (stereo not given in full),Activity,[1],inactive
Nc1ncnc2c1ncn2[C@@H]1O[C@H](COP(N)(=O)O)[C@@H](O)[C@H]1O,Activity,[1],inactive
Nc1nc(=O)[nH]c2c1ncn2[C@@H]1O[C@H](CO)[C@@H](O)[C@H]1O,Activity,[1],inactive
CCOc1nc(N)nc2c1ncn2[C@@H]1O[C@H](COP(=O)(O)OP(=O)(O)OP(=O)(O)O)[C@@H](O)[C@@]1(C)F,Activity,[1],inactive
Nc1ccn([C@H]2C[C@H](O)[C@@H](COP(=O)(O)O)O2)c(=O)n1,Activity,[1],inactive
C[C@H](Cn1cnc2c(N)ncnc21)OCP(=O)(O)O,Activity,[1],inactive
C[C@@]1(F)[C@H](O)[C@@H](COP(=O)(O)O)O[C@H]1n1ccc(N)nc1=O,Activity,[1],inactive
CCOc1nc(N)nc2c1ncn2[C@@H]1O[C@@H]2CO[P@](=O)(OC(C)C)O[C@H]2[C@@]1(C)F,Activity,[1],inactive
O=P(O)(O)OC[C@H]1O[C@@H](n2cnc3c2ncn2ccnc32)[C@H](O)[C@@H]1O,Activity,[1],inactive
COc1nc(N)nc2c1ncn2[C@@H]1O[C@H](COP(=O)(N[C@@H](C)C(=O)OC(C)C)Oc2ccccc2)[C@@H](O)[C@@]1(C)F (stereo not given in full),Activity,[1],inactive
Nc1nc(=S)c2ncn([C@@H]3O[C@H](COP(=O)(O)O)[C@@H](O)[C@H]3O)c2[nH]1,Activity,[1],inactive
CNc1ncnc2c1ncn2[C@@H]1O[C@H](CO)[C@@H](O)[C@H]1O,Activity,[1],inactive
Nc1nc(N)c2ncn([C@@H]3O[C@H](CO)[C@@H](O)[C@H]3O)c2n1,Activity,[1],inactive
COc1nc(N)nc2c1ncn2[C@@H]1O[C@H](CO)[C@@H](O)[C@@]1(C)F,Activity,[1],inactive
B1,kcat/Km,[2],1700 M⁻¹ s⁻¹
same,kcat/Km,[3],220000 M⁻¹ s⁻¹
same,kcat/Km,[4],180000 M⁻¹ s⁻¹
same,kcat/Km,[5],320000 M⁻¹ s⁻¹
same,kcat/Km,[6],223000 M⁻¹ s⁻¹
same,kcat/Km,[7],280000 M⁻¹ s⁻¹
same,kcat/Km,[8],490000 M⁻¹ s⁻¹
same,kcat/Km,[9],130000 M⁻¹ s⁻¹
same,kcat/Km,[10],650000 M⁻¹ s⁻¹
same,kcat/Km,[11],450000 M⁻¹ s⁻¹
same,kcat/Km,[12],300000 M⁻¹ s⁻¹
same,kcat/Km,[13],220000 M⁻¹ s⁻¹
same,Km,[14],32.8 µM
same,kcat,[14],0.055 s⁻¹
same,Km,[15],10.7 µM
same,kcat,[15],2.36 s⁻¹
same,Km,[16],8.63 µM
same,kcat,[16],1.55 s⁻¹
same,Km,[17],25.1 µM
same,kcat,[17],8.14 s⁻¹
same,Km,[18],16.3 µM
same,kcat,[18],3.64 s⁻¹
same,Km,[19],25.9 µM
same,kcat,[19],7.2 s⁻¹
same,Km,[20],6 µM
same,kcat,[20],2.92 s⁻¹
same,Km,[21],12.5 µM
same,kcat,[21],1.58 s⁻¹
same,Km,[22],8.96 µM
same,kcat,[22],5.85 s⁻¹
same,Km,[23],5.2 µM
same,kcat,[23],2.33 s⁻¹
same,Km,[24],14.3 µM
same,kcat,[24],4.24 s⁻¹
same,Km,[25],7.37 µM
same,kcat,[25],1.63 s⁻¹
